Experimental data from article PMC8687462 (bioRxiv, 2021).

B1: 14-3-3ζ S58E (natural protein)
chain: MDKNELVQKAKLAEQAERYDDMAACMKSVTEQGAELSNEERNLLSVAYKNVVGARRSEWRVVSSIEQKTEGAEKKQQMAREYREKIETELRDICNDVLSLLEKFLIPNASQAESKVFYLKMKGDYYRYLAEVAAGDDKKGIVDQSQQAYQEAFEISKKEMQPTHPIRLGLALNFSVFYYEILNSPEKACSLAKTAFDEAIAELDTLSEESYKDSTLIMQLLRDNLTLWTS

Columns and labels:
HSPB6-pSer16 [1] = molecular target: HSPB6-pSer16 (UniProt O14558); assay: AUC
HSPB6-nhpSer16 [2] = molecular target: HSPB6-nhpSer16 (UniProt O14558); assay: AUC
HSPB6-pSer16 [3] = molecular target: HSPB6-pSer16 (UniProt O14558); assay: SEC-MALS; conditions: scale: 14-3-3 chains per HSPB6 chain
HSPB6-nhpSer16 [4] = molecular target: HSPB6-nhpSer16 (UniProt O14558); assay: SEC-MALS; conditions: scale: 14-3-3 chains per HSPB6 chain
SEC-MALS = molecular target: the molecule itself; assay: SEC-MALS

Chain of HSPB6-pSer16 (O14558 whole entry): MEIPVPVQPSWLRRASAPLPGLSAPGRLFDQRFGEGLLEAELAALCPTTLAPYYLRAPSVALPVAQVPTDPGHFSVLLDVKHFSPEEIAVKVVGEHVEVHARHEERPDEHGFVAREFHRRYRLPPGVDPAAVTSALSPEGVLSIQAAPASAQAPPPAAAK

Molecule	Kd (HSPB6-pSer16 [1])	Kd (HSPB6-nhpSer16 [2])	stoichiometry N (HSPB6-pSer16 [3])	stoichiometry N (HSPB6-nhpSer16 [4])	stoichiometry N (SEC-MALS)
14-3-3ζ (untagged, co-expressed with His-tagged HSPB6) (from UniProt P63104 1-230) (natural protein)	92 nM	120 nM	1	1	
B1					2
